Biological target: T1, recombinant HIV-1 Nef (SF2) with C-terminal hexahistidine tag (HIV-1 (SF2), UniProt P03407)
T1 construct: also called Nef protein; Nef-Sepharose
Assay: SPR; in vitro; estimate of the affinity; who was immobilised and the conditions are not told in the text (Supplementary Fig. 5)
Details: both partners purified

T1 sequence (P03407 whole entry): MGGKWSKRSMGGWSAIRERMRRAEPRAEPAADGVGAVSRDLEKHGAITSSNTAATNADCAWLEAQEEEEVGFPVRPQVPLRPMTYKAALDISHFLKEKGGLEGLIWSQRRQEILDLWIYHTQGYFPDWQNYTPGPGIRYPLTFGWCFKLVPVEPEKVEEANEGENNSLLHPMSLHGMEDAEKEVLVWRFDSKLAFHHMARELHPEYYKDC

B1: recombinant human GABARAP (natural protein)
chain: MKFVYKEEHPFEKRRSEGEKIRKKYPDRVPVIVEKAPKARIGDLDKKKYLVPSDLTVGQFYFLIRKRIHLRAEDALFFFVNNVIPPTSATMGQLYQEHHEEDFFLYIAYSDESVYGL
notes: also called 15N-GABARAP; [U-15N]-GABARAP
Kd: ~20 µM

— paper PMC5519724, “Direct binding to GABARAP family members is essential for HIV-1 Nef plasma membrane localization” (Scientific Reports, 2017)
